Conditions in all cases: protein: recombinant; chain copies: 2; blunt; as printed S2 is not the exact complement of S1: 2 mismatches at S1 positions 34-35 (possible typo)
In data set [1] the target is Truncated topoisomerase II beta (C-terminal domain deleted) (human, UniProt Q02880 51-1268). In words: fluorescence anisotropy; 50 mM Tris pH 8, 5% glycerol, 50 mM KCl, 1% Triton X-100, 100 µg/ml acetylated BSA, 20°C; HEX oligo printed as 1 µM; 10 mM MgCl2 or CaCl2 where described. For orientation: In fluorescence polarisation assays a small probe gives low polarisation when free and higher when bound to something large.

The target of data set [2] is Truncated topoisomerase II alpha (C-terminal domain deleted) (human, UniProt P11388 29-1242). The data set is described as above.
Chain of Truncated topoisomerase II alpha (C-terminal domain deleted) (P11388 29-1242, stated change not applied): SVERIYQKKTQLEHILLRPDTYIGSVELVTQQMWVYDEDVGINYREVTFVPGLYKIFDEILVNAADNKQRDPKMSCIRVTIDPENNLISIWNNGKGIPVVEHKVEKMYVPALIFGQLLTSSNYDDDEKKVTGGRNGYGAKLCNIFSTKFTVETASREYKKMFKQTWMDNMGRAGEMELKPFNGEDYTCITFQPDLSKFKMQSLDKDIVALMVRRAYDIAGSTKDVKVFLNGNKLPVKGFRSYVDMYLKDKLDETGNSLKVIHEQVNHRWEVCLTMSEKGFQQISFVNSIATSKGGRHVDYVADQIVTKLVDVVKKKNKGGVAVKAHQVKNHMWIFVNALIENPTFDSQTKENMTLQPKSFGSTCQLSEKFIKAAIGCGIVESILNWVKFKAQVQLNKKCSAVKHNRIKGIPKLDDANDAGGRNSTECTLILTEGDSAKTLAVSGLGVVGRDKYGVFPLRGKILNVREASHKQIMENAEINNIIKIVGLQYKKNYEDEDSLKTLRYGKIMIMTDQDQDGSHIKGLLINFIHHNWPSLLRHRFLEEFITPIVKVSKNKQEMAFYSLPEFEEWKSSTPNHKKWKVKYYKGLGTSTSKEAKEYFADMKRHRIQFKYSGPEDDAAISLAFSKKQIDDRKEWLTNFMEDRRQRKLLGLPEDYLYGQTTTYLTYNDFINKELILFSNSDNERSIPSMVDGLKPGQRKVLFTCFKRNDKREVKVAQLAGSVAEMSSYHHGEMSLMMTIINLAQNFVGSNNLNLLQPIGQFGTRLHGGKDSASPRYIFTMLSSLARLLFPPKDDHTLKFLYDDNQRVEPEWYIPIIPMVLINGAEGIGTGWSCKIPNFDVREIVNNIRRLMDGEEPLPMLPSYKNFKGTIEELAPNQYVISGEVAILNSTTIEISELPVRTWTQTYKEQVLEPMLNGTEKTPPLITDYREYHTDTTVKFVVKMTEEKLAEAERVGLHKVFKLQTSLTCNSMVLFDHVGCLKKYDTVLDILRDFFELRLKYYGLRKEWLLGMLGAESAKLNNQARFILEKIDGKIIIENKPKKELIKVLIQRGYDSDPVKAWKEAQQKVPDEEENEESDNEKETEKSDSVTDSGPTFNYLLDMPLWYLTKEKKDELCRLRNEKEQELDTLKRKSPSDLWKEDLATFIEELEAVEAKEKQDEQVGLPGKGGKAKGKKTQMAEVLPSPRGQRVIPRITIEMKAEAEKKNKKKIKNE
Data set [3] has as its target T1, DNA topoisomerase II alpha, full length (human, UniProt P11388 1-1531). The data set is described as above.
The target of data set [4] is T2, DNA topoisomerase II beta, full length (human, UniProt Q02880 1-1626). The description is as above.
T2 sequence (Q02880 whole entry): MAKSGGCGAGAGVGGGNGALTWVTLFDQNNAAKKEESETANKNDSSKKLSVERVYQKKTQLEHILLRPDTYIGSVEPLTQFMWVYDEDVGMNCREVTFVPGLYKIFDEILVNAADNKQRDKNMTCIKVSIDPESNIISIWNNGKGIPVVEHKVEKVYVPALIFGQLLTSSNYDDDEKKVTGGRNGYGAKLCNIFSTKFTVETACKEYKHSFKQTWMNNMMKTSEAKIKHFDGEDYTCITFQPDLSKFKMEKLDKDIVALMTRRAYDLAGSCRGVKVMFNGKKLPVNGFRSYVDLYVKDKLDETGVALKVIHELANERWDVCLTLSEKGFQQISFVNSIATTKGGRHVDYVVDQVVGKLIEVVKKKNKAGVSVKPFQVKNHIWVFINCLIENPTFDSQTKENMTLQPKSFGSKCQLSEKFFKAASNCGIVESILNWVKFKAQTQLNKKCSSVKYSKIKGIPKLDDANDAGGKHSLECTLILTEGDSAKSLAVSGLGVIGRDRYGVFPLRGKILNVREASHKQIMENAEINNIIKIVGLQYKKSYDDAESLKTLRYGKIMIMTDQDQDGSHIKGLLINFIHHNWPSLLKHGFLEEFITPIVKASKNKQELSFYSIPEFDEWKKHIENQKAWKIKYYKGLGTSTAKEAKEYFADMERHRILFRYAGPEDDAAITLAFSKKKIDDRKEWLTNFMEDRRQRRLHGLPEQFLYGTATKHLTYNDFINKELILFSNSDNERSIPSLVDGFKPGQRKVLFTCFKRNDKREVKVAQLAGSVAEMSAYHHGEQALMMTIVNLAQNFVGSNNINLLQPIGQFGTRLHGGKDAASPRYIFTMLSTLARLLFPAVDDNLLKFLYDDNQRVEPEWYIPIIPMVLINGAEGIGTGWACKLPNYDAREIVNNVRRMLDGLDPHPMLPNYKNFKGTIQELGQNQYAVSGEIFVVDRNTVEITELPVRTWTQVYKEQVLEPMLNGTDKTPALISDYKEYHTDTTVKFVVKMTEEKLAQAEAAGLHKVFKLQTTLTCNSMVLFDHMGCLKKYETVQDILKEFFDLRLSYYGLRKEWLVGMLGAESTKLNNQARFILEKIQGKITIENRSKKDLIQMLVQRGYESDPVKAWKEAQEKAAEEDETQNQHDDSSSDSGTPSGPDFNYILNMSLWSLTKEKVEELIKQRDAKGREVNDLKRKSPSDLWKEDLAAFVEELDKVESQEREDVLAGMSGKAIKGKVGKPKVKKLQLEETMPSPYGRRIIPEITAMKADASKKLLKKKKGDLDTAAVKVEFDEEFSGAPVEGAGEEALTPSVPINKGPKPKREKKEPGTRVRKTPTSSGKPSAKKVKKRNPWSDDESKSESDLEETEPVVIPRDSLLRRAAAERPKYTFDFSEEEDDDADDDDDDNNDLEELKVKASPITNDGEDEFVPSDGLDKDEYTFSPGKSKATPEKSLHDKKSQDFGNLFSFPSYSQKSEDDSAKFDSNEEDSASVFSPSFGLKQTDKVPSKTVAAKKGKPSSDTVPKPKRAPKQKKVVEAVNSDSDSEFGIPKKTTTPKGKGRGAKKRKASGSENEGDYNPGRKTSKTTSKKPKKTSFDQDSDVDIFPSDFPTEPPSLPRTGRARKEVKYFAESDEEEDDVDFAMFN
The target in data set [5] is T1, DNA topoisomerase II alpha, full length. Nature of the data set: fluorescence anisotropy; 10 mM MgCl2; 50 mM Tris pH 8, 5% glycerol, 50 mM KCl, 1% Triton X-100, 100 µg/ml acetylated BSA, 20°C; HEX oligo printed as 1 µM; 10 mM MgCl2 or CaCl2 where described.
For data set [6], the target named is T2, DNA topoisomerase II beta, full length. The data set is described as above.
In data set [7] the target is T1, DNA topoisomerase II alpha, full length. Nature of the data set: fluorescence anisotropy; 10 mM CaCl2; 50 mM Tris pH 8, 5% glycerol, 50 mM KCl, 1% Triton X-100, 100 µg/ml acetylated BSA, 20°C; HEX oligo printed as 1 µM; 10 mM MgCl2 or CaCl2 where described.
Data set [8] concerns the target T2, DNA topoisomerase II beta, full length. Described as above.
The target in data set [9] is T1, DNA topoisomerase II alpha, full length. Nature of the data set: fluorescence anisotropy; no metal; 50 mM Tris pH 8, 5% glycerol, 50 mM KCl, 1% Triton X-100, 100 µg/ml acetylated BSA, 20°C; HEX oligo printed as 1 µM; 10 mM MgCl2 or CaCl2 where described.
Data set [10] addresses T2, DNA topoisomerase II beta, full length. Described as above.

T1 sequence (P11388 whole entry): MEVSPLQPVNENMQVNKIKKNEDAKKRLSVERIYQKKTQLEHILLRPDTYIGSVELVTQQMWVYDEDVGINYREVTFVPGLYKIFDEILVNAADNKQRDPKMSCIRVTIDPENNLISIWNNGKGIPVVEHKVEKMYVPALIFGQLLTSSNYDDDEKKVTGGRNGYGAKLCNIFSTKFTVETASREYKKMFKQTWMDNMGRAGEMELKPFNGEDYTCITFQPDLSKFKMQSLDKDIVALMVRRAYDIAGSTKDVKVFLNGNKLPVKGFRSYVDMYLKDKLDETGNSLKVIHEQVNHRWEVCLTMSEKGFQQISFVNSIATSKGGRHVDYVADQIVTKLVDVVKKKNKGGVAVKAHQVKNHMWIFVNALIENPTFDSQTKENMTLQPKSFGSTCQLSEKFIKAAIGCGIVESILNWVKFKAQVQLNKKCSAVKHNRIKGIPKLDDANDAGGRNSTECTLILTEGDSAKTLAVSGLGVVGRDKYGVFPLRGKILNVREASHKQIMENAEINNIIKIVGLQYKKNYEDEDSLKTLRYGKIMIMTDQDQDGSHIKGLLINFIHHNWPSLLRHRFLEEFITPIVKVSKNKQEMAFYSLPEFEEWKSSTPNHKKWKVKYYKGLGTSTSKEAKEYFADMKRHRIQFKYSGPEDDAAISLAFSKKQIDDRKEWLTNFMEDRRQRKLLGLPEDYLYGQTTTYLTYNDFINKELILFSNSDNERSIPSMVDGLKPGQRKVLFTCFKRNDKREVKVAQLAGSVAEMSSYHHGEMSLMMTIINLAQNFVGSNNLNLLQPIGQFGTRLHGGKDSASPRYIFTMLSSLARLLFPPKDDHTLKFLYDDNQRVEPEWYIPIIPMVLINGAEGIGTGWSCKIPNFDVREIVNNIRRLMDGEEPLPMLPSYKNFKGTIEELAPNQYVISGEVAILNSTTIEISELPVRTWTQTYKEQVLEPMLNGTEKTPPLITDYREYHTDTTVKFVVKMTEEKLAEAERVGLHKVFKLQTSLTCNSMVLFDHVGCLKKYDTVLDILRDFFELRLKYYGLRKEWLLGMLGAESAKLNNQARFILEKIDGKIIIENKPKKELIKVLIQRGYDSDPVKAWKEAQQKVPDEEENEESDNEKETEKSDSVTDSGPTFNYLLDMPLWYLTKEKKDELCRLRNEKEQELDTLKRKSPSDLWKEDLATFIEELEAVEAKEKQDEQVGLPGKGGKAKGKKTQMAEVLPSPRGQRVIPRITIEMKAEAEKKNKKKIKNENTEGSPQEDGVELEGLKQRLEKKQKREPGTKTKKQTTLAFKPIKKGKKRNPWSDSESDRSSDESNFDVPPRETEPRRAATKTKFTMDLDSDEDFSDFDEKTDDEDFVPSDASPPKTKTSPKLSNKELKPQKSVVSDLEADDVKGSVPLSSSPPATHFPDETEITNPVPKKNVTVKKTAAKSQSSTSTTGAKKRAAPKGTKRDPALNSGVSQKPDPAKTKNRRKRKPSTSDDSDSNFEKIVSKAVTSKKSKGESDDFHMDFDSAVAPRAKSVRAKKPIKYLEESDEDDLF

B1: 40 bp oligo AB (dsDNA)
DNA 1: CGCAATCTGACAATGCGCTCATCGTCATCCTCGCGACGCG
DNA 2: CGCGTGCCGAGGATGACGATGAGCGCATTGTCAGATTGCG
As to B1, the Kd was 17.8 nM in data set [1]; 116 nM in [2]; 189 nM in data set [3]; 72.9 nM in [4]; 150 nM in [5]; 55.4 nM in [6]. Besides, the Kd in data set [7] was 178 nM; in data set [8], 84.3 nM; in data set [9] it was 160 nM; in data set [10], 46.4 nM.

What is called Kd is the concentration at which binding is half-saturated.

These data come from paper PMC3040172, “The Impact of the C-Terminal Domain on the Interaction of Human DNA Topoisomerase II α and β with DNA”.
